Results on two substances are retold here after patent US20030065144A1.

This assay addresses UNC-49B GABA receptor subunit (UNC-49B.1 isoform) (C. elegans). Description: cell-based or functional assay.

UNC-49C GABA receptor subunit registered an EC50 value for GABA, Xenopus oocytes injected with equal amounts of UNC-49B and UNC-49C RNA, two-electrode voltage clamp of 108 µM; a single main conductance state, single channel recordings in HEK-293 cells transfected with UNC-49B and UNC-49C of 30.9 pS.
For “UNC-49B GABA receptor subunit (UNC-49B.1 isoform)”, the GABA concentration required to produce half-maximal channel activity (EC50), Xenopus oocytes injected with UNC-49B.1 mRNA, two-electrode voltage clamp is 43.7 µM and the single main conductance state, single channel recordings in HEK-293 cells expressing UNC-49B alone turned out to be 37.5 pS.
